The text below walks through data of US20140045930A1, “ASSAY FOR ARGINYL HYDROXYLASE ACTIVITY” (priority 2011, published 2014).

For the assay, the target named is His-tagged L16 protein (recombinant, produced in YcfD knock out strain JW1114) (E. coli) (UniProt A7ZSK2). The assay can be described thus: cell-based or functional assay.

As to “YcfD ectopically expressed in the deletion strain JW1114 (co-expressed with L16 from pETDuet-1) (from UniProt P27431 1-373) (enzyme)”, the hydroxylation of R-81 in L16 in vivo (MS); unmodified peptide detected (% unmodified peptide) was below 1.
